{"source": "paper PMC10331576", "about": "(2023)", "binders": {"B1": {"name": "DC-SIGN.Fc (Fc fusion)", "chain": "QVSKVPSSISQEQSRQDAIYQNLTQLKAAVGELSEKSKLQEIYQELTQLKAAVGELPEKSKLQEIYQELTRLKAAVGELPEKSKLQEIYQELTWLKAAVGELPEKSKMQEIYQELTRLKAAVGELPEKSKQQEIYQELTRLKAAVGELPEKSKQQEIYQELTRLKAAVGELPEKSKQQEIYQELTQLKAAVERLCHPCPWEWTFFQGNCYFMSNSQRNWHDSITACKEVGAQLVVIKSAEEQNFLQLQSSRSNRFTWMGLSDLNQEGTWQWVDGSPLLPSFKQYWNRGEPNNVGEEDCAEFSGNGWNDDKCNLAKFWICKKSAASCSRDEEQFLSPAPATPNPPPA"}}, "molecular_target": "COVID-2019-Spike-328-585 (RBD) (SARS-CoV-2, UniProt P0DTC2 328-585)", "assay": "BLI", "data": [{"binder": "B1", "values": [{"measurement": "koff", "value": 0.000614, "unit": "s⁻¹"}]}]}
